Results: article PMC3632103
Where two headings read alike, the source gives them in different places.

T1: D2 helicase WT (His-MBP fusion) (Bacteriophage T5, UniProt Q6QGH9 1-928)
T1 sequence: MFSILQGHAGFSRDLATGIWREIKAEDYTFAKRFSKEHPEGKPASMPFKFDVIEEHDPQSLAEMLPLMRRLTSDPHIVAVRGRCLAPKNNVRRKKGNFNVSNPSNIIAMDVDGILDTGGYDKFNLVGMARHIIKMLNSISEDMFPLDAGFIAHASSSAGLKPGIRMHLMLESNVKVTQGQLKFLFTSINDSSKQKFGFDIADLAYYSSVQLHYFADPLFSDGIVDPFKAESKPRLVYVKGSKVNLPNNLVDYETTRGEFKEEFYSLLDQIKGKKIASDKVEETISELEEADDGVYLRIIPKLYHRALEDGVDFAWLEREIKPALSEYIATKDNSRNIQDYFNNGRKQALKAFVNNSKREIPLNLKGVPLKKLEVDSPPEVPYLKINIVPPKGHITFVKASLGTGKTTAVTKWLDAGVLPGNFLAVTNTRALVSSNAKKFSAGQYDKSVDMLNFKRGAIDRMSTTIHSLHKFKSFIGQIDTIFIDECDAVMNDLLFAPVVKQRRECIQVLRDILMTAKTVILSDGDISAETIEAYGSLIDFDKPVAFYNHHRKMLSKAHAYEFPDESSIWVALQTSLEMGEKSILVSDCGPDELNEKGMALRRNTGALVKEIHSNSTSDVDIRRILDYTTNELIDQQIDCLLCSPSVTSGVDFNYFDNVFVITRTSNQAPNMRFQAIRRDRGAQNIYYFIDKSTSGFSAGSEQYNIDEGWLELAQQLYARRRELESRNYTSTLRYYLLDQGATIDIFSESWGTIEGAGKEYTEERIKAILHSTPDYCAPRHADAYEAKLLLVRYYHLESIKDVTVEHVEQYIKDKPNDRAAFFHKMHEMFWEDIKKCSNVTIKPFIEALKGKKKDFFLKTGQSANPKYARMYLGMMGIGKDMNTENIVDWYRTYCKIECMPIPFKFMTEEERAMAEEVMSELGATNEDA

T2: D2 helicase K405E (His-MBP fusion) (Bacteriophage T5, UniProt Q6QGH9 1-928, K405E)
T2 sequence: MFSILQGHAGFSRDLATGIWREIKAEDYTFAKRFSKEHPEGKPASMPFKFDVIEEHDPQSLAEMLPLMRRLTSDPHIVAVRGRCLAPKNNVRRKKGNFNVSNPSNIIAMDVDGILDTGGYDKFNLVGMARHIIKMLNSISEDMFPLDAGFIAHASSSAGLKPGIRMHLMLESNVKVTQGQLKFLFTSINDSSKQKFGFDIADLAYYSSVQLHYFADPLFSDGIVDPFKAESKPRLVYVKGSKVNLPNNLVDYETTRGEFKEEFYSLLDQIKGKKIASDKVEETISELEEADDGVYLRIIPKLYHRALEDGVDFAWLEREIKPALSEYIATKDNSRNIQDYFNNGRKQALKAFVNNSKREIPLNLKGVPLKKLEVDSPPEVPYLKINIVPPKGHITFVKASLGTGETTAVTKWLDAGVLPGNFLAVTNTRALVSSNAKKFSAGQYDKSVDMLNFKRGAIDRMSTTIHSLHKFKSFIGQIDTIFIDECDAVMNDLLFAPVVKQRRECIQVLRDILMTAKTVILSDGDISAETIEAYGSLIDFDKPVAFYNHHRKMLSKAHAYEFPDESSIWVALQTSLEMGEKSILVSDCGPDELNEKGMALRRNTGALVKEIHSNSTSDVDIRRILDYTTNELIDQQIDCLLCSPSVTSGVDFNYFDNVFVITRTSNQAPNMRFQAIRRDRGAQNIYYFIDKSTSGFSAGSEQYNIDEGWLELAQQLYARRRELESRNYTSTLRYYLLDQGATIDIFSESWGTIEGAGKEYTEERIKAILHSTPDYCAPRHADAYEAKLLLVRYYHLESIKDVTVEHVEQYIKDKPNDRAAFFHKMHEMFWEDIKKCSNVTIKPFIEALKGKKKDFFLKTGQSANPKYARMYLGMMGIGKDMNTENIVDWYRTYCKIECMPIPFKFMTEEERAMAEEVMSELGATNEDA


Legend:
Assay in all cases: EMSA
[1] = target: T1, D2 helicase WT (His-MBP fusion)
[2] = target: T2, D2 helicase K405E (His-MBP fusion)
[3] = target: T1, D2 helicase WT (His-MBP fusion); remark: listed apart in the source

Binder	binding result [1]	binding result [2]	binding result [3]
TTTTTTTTTTTTTTTTTTTTTTTTT (ssDNA) [T25]	binds	binds	–
T55 (ssDNA) DNA: TTTTTTTTTTTTTTTTTTTTTTTTTTTTTTTTTTTTTTTTTTTTTTTTTTTTTTT	–	–	binds
TTTTTTTTTTTTTTTTTTTTTTTTTTTTTTTTTTT (ssDNA) [T35]	–	–	binds
